The nature of this data set: soluble on expression in E. coli; label from the status in PepcDB or PDB records.
In the case of “MSLTGGVISGLGKGTITSSIGHILKDSGIKVSAVKIDPYINYDAGTMNPYQHGEVFVLDDGGEVDLDLGNYERFMNINLSRDNNITTGKVYLEVIQKERHGDYLGKTVQIIPHITDEIKRRIREVARTSGADVVLIEVGGTVGDIESMPFLEALRQLKREEQNVVFAHVTLVPEIGPTMEQKTKPTQHSVKALREIGIQPDIIFARSKQKLTEETKSRISLFTDVPVEGIISVSDVENVYLLPQMMVNEGLITRLSKLLNMNIEYRDSWTSYAENIRHPRDRVKVAIVGKYVDLHDAYISHKEAFSHVTGNTGIAVDIMWIDSEKVKNDQSVLSEADAILIPGGFGYRGVEGKIAATRYAMENGVPFLGICLGFQVAVIAVARYVLGLDGANSTEFDEKTKYPVVDILPEQRGVKDMGGTMRLGSKKVVIKKGTLAHRIYGADVIYERHRHRYEVNPDYIDMIEKAGFKFSATDEEGIRMEILERPGDESFIATQYHSEFKSRPLDPSKVHLHLVEQALIFKHRRMGENHEGYATAASSQGQEGHHHHHH”, the “soluble on expression in E. coli” value is recorded as “soluble”.
With “MGSDKIHHHHHHMTTRLQDIIQPEIFTEYVVQRTTEKSALVQSGIIERNAEFDALASGPNTLVNMPFWNDLTGDSEVIRDEGNLTAGKITSGKDVARKQGRARMWGASGLSALLSGDDPMRAIADLVADYWIRQDQKMLLATLEGIFNSESMADKVLDITGEPGSDALLDGDSFIDAGQLMGDAKDLLTGVMMHSAVEAYLAKRQLIEYVQEADQTDRIPYFMNKRVIVDDAMPYDTQTKEGVIYLFGTGAIASGVGSHPNILPTEVDRNSQSSSGEDFLINRRIQILHPRGVKWTENNVSDVFPTNEELADGSNWERVYEPKAIRIVKFKFKTELDVDGA”, the “soluble on expression in E. coli” value is given as “not soluble”.
For “MMEIRLTELKDLPLVMEIYDYARAFMRANGNATQWIDGYPSESFIRQEIEDGHSFVCTDEQGEILGTFCFILGEDPTYLNIYEGAWLNDEPYGVIHRMATSGKRKGVSEACLNWCFEHFENIRVDTHRDNKVMQHILAKYGFQRCGIIYVKNGTERIAYQRIL”, the “soluble on expression in E. coli” value is listed as “not soluble”.
Take “MRGSHHHHHHMDYASVAMAAAPTTTTTTNVSLRRQRHRKEKLLVLMGATGTGKSRLSIDLAAHFPLEVINSDKMQVYKGLDITTNKISVPDRGGVPHHLLGEVDPARGELTPADFRSLAGKAVSEITGRRKLPVLVGGSNSFIHALLVDRFDSSGPGVFEEGSHSVVSSELRYDCCFLWVDVSVKVLTDYLAKRVDDMLELGMFDELAEFYSPEDEDHDEDSATRTGLRKAIGVPEFDRYFEKFRPGDVEGEDPGRDRVRRGAFEEAVRAIKENTCHLAKRQIGKILRLKGAGWDLRRLDATESFRAAMTSDSGEKCTEIWEKQVLEPSVKIVSRFLDE”: the “soluble on expression in E. coli” value is on record as “soluble”.
Regarding “MKTRESSVGLKFRKFNRFYTNVLGFLNEHIYDSPFSLTETRILFEIYNTPNCTAKALQDKLGLDRGYVSRIVKQFEKEDLIYKQRSKDDARHHYIFVTETGKTIYKKLEEKANEQVELMLKVINQKEQHKLAEAMAEIEAILSQSLSARASEISIRDYFLSEDLQLLIEKQRQFYAEAHGWDDTFLAYLQETFDADIEKIWIAESGGKFAGSVGLVKHDEKTVQLRWFLVDADFRGRGLGTQLLEHLVAYCQDMKFDRIFLWTVSTMAEARPLYKKFGFRISEVKQEAPLWGQQLTEERWDLELS”, the “soluble on expression in E. coli” value is on record as “soluble”.
For the sequence “ATITIETCEDPGDWTAAIGDDTFTFWRGLKDAGLLDEVIQEFHQELVETMRGLQQRVQDPPLQLRDAVLLNNIVQNFGMLDLVKKVLASHKCQMDRSREQYARDLAAL”, the “soluble on expression in E. coli” value is on record as “soluble”.
Regarding “MGSDKIHHHHHHMPARIQPTARQVRLGAELRKLRDAAGLTSRQAAALLGTNPAQMSQIEAGNAGVSGERVRKLGVQYASADMELVDALVEMATDRTRGWWEEYRDVLPPVFQDLAELEHHATFMRVVGTVHVPGLLQTQEYARAVFAYVVPELPVDELDLRVRHRMRRKLVLSERTVPYEAVIHESVLRTRVADRRVAVAQLDELLSQSERPNVSLRVIPFGVDGFAGAGAMMLYAGGRVPALDTVQRDAPYGSVFLDASAQLLAMRTLFRRVESAALPPAKSRDYIHRLTKEL”, the “soluble on expression in E. coli” value is listed as “not soluble”.
The entry for “MGGSHHHHHHGMASGKSDFLTPKAIANRIKSKGLQKLRWYCQMCQKQCRDENGFKCHCMSESHQRQLLLASENPQQFMDYFSEEFRNDFLELLRRRFGTKRVHNNIVYNEYISHREHIHMNATQWETLTDFTKWLGREGLCKVDETPKGWYIQYIDRDPETIRRQLELEKKKKQDLDDEEKTAKFIEEQVRRGLEGKEQEVPTFTELSRENDEEKVTFNLSKGACSSSGATSSKSSTLGPSALKTIGSSASVKRKESSQSSTQSKEKKKKKSALDEIMEIEEEKKRTARTDYWLQPEIIVKIITKKLGEKYHKKKAIVKEVIDKYTAVVKMIDSGDKLKLDQTHLETVIPAPGKRILVLNGGYRGNEGTLESINEKTFSATIVIETGPLKGRRVEGIQYEDISKLA” is “not soluble”; for “MSFGYLIATSQPCELLTKSRGETFSLIMDKMDLWIYFRFCEGNIYTIRKNETESCLTERGGEWLKHIYEFNRGSFIFSYVLLKKRESEENFTEIVLKSIKNNKILTVKVRSGLHFDLRNIYRIEM” it is “not soluble”; for “MGSDKIHHHHHHMHTDINALFAALWQDYIQMTPSAAKVHALLGHGKPIINDHIALRTFNIAKVNLDVLAKHFTSLGYVACGDYKFEQKKLVAKHFEHPDSTQPKVFISELLVEEFSPALQATIQGLIAQVDVAATTADNFIYSGRHWSLDSQTYEDLLAESEYAAWVAAFGYRANHFTVSINHLDGFDTLESVNNALKQAGFVLNSSGGEIKGSPEVLLEQSSTMADKIGVEFTNATVEIPSCFYEFALRYPMANGELYTGFVAASADKIFESTNVNKA” it is “not soluble”.
Regarding “MATEAPTQSYSEQWYWDDRYKNESEPFDWYQKYSPLAPLINLYVPQRNQRVLVIGCGNSAFSEGMVDDGYEDVVSIDISSVVIDTMIKKYSDRPQLKYLKMDVRDMKAFEDASFDAVIDKGTLDSILCGSNSRQYSTQMLEEVWRVLKDKGVYILITYGAPIYRLRLFKESCSWTTKLHVIDKSLTDQPLDTPKWELTKPLPLDADGSSVESAIGKNPDVHYIYVCIKDESSKMEADAA”, the “soluble on expression in E. coli” value was “soluble”.
On to “MSANFTDKNGRQSKGVLLLRTLAMPSDTNANGDIFGGWIMSQMDMGGAILAKEIAHGRVVTVAVESMNFIKPISVGDVVCCYGQCLKVGRSSIKIKVEVWVKKVASEPIGERYCVTDAVFTFVAVDNNGRSRTIPRENNQELEKALALISEQPL”, for which the “soluble on expression in E. coli” value is recorded as “soluble”.
Regarding “MAARTALGAVCRRLWQGLGNFSVNTSKGNTAKNGGLLLSTNMKWVQFSNLHVDVPKDLTKPVVTISDEPDILYKRLSVLVKGHDKAVLDSYEYFAVLAAKELGISIKA”, the “soluble on expression in E. coli” value was “not soluble”.
“YSSRRFEKKKIHFPSRRRRFVDYLINAQRSEKLELNSQQQLGNRHSGSSELVKSESRKKAKSSNQKEKVKPEKRGRATATTGAGPTIDQSLKGPTGTTMASERGMTMTQTIQKEKSIKKKKSEKDERKRAKEVGNEEAAADNQTVTQGNDTTTTQGPSSMFPADLSKKHRLGLQKVKERAVEVPEKKKTKNNE”: the “soluble on expression in E. coli” value was “not soluble”.
With “MSEAEARPTNFIRQIIDEDLASGKHTTVHTRFPPEPNGYLHIGHAKSICLNFGIAQDYKGQCNLRFDDTNPVKEDIEYVESIKNDVEWLGFHWSGNVRYSSDYFDQLHAYAIELINKGLAYVDELTPEQIREYRGTLTQPGKNSPYRDRSVEENLALFEKMRAGGFEEGKACLRAKIDMASPFIVMRDPVLYRIKFAEHHQTGNKWCIYPMYDFTHCISDALEGITHSLRTLEFQDNRRLYDWVLDNITIPVHPRQYEFSRLNLEYTVMSKRKLNLLVTDKHVEGWDDPRMPTISGLRRRGYTAASIREFCKRIGVTKQDNTIEMASLESCIREDLNENAPRAMAVIDPVKLVIENYQGEGEMVTMPNHPNKPEMGSRQVPFSGEIWIDRADFREEANKQYKRLVLGKEVRLRNAYVIKAERVEKDAEGNITTIFCTYDADTLSKDPADGRKVKGVIHWVSAAHALPVEIRLYDRLFSVPNPGAADDFLSVINPESLVIKQGFAEPSLKDAVAGKAFQFEREGYFCLDSRHSTAEKPVFNRTVGLRDTLEHHHHHH”, the “soluble on expression in E. coli” value was “soluble”.
As for “MSLSEDLRFFEFFAGGGMARAGLGNQWQCLFANDMDRIKASTYIQNWGKDHFDSRDIREVNSEDLERNGDLAWASFPCQDLSVAGNGLGIGSSSAKDFTRSGALWPFLDLIDTLRQEERQPPLLVLENVVGLLTLEGGRDFAAICERLGEIGYRYGAVIIDAKHFLPQSRPRVFIIAVQRNIDIPCKLSRGMATANWHTPTLLRAYKSLTPILHADWVWWELGDAPILQENALESFIQREGVLWNTPEETKRIISMMAPAHLARLENAKCAGGVAVGSLYLRMRREGGINKQRAEITFSPLLGCLRTPRGGASRPRIIVVESGHVRTRLLTICEAARLMGLANTYILPEIYHHAFKVIGDGVAVPAVRFLAERLLEPLAIAAEGHHHHHH”, the “soluble on expression in E. coli” value was “not soluble”.
On to “GSHMAPADYFRVLVQQFEVQLQQYRQQIEELENHLATQANNSHITPQDLSMAMQKIYQTFVALAAQLQSIHENVKVLKEQYLSYRKMFLGDAG”, for which the “soluble on expression in E. coli” value is on record as “soluble”.
With “MGSDKIHHHHHHMKTVKTHITQLLHAMNKGIFEKEHPIALSLLSAISGESIFFLGPPGVAKSLIARRLKLAFDQSTAFEYLMSRFSTPDEIFGPVSISKLKDEDKYERIIEGYLPSATIVFLDEIWKAGPSIQNSLLTVINEKVYRNGQYTIQLPLKGLIAASNELPAQGEGLEALWDRFLIRYFIGNIEQEFAFDQMIASVNDMEAEIPTGLSITEEQYTDWRTQISQIKIHYTVFELIHSIKRQIEKYNIQKEEVPHSTLYISDRRWKKIISLLRTSAFLNETDTIRFSDCTLLLHCLWNEIEQIPIIEQMVSSALDECISHYLCGERTLEQKLSSIREDMKSEHSLRETKDPALQIVDTFYHQIERYPVAGNLLIFASDYQSLQKDTQKLFYVQRDKYRPVNWILKVYDHVRNRNISQSAIVSLKKGTRSVFINNQEYPLACNAGYDIAYPQEASLPFEFRFQEVIDLYHNRENELKRMTDIELTYCKEHLFMDDKQRNMVKQILNRQKEMLEIYQNEIREIAYTHGLENKEY”, the “soluble on expression in E. coli” value is “not soluble”.
As for “SPLPDTMFCAQQIHIPPELPDILKQFTKAAIRTQPADVLQWSAGYFSALSRGDPLPVKDRIEMPVATQKTDTGLTQGLLKVLHKQCSHKQYVELADLEKKWKNLCLPVEKLRTILELDPCEDKIEWIKFLALGCSSLGRTLNTAMKNVCEILTSDPEGGPARIPFETFAYVYQYLSGLDPELPAVETENYLTSLRLMSESRKNGMIGLSDFFVGKKII”, the “soluble on expression in E. coli” value is listed as “soluble”.
“MGSDKIHHHHHHMSSNNRKKLLLMGRSGSGKSSMRSIIFSNYSAFDTRRLGATIDVEHSHLRFLGNMTLNLWDCGGQDVFMENYFTKQKDHIFQMVQVLIHVFDVESTEVLKDIEIFAKALKQLRKYSPDAKIFVLLHKMDLVQLDKREELFQIMMKNLSETSSEFGFPNLIGFPTSIWDESLYKAWSQIVCSLIPNMSNHQSNLKKFKEIMNALEIILFERTTFLVICSSNGENSNENHDSSDNNNVLLDPKRFEKISNIMKNFKQSCTKLKSGFKTLILNNNIYVSELSSNMVCFIVLKDMNIPQELVLENIKKAKEFFQ”: the “soluble on expression in E. coli” value was “not soluble”.
With “MGSDKIHHHHHHMFWFKNVMIYRLTNALQLASNELEPLLQQHRFIGCSQSEMSKFGWTAPLAKTEQLHFCHTKQFLLISHKEDKLLPANVIKAETEERIALLEEKENRKLKKTEKQAIKDDVIAMLLPRAFSKHQFTAIWLDLDAQLVYVDAASSKRAEASLALLRKTLGSLPVVPLSFVQLPAEVMTNWLAKGHTPNWLTLLEEAELKSFETESVIRCKKQELESDEICYHLQAGKLVTKLAIEWENHFSCVLNNDATLTRLKFAGEIIEKNDDILKEDIAQRLDADFLLMTEELRLFTQKLIEEFGGIKE”, the “soluble on expression in E. coli” value was “not soluble”.

(Values after the DeepSol protein solubility set.)
